According to PMC9951844 (Nature Communications, 2023):

B1: R1-32 Fab (Fab, V domains shown)
VH: EVQLVESGAEVKKPGSSVKVSCKASGGTFSSYAISWVRQAPGQGLEWMGGIIPILGIANYAQKFQGRVTITADKSTSTAYMELSSLRSEDTAVYYCARENGYSGYGAAANFDLWGRGTLVTVSS
VL: QSVLTQPPSVSGAPGQRVTISCTGSSSNIGAGYDVHWYQQLPGTAPKLLIYGNSNRPSGVPDRFSGSKSGTSASLAITGLQAEDEADYYCQSYDSSLSGSVFGGGTKLTVL
B2: YB13-292 Fab (Fab, V domains shown)
VH: EVQLVESGGGLVKPGGSLRLSCAASGFSFITYNMNWVRQAPGKGLEWVSSISSNILSSTSYIYYADSVKGRFTISRDDAANSLFLQMNSLRVEDTAQYYCARTRSRSVRNCTSATCPVDAFDLWGQGTMVIVSS
VL: DIVLTQSPLSLPVTPGEPASISCRSSQSLLRSNGYNYLDWYLQKPGQSPHLLIYLGSNRASGVPDRFSGSGSGTDFTLKISRVEAEDVGVYYCMQALQTPYTFGQGTNLEIK
B3: YB9-258 Fab (Fab, V domains shown)
VH: EVQLVESGGGLIQPGGSLRLSCAASGLTVSSNYMHWVRQAPGKGLEWVSVLYAGGSAFYADSVKGRFTISRNNSKNTLYLQMNSLRAEDTAIYYCARGLGDYLDSWGQGTLVTVSS
VL: DIQMTQSPSSVSASVGDRVTITCRASQGIGSWLAWYQQKPGKAPQLLIYAASTLQSGVPPRFSGSGSGTDFTLTITSLQPEDFASYYCQQANSVLALTFGGGTKVEIK

Key:
S-GSAS/6P/Wildtype = S-GSAS/6P/Wildtype (SARS-CoV-2 hCoV-19/Wuhan/WIV04/2019, UniProt P0DTC2, proline substitution at residue 817 | proline substitution at residue 892 | …); test: cryo-EM structure; conditions: both partners purified
S-R/6P/Omicron BA.1 = S-R/6P/Omicron BA.1 (SARS-CoV-2 Omicron BA.1 (B.1.1.529), S371L | S373P | S375F | K417N | A484 | proline substitution at residue 817 | …); test: cryo-EM structure; conditions: both partners purified

Binder | stoichiometry N (S-GSAS/6P/Wildtype) | stoichiometry N (S-R/6P/Omicron BA.1)
B1 | 3 Fabs per spike trimer (3:3:3) | –
B2 | – | 3 Fabs per spike trimer (3:3 protomer:Fab)
B3 | 3 Fabs per spike trimer (3:3:3) | –
